Assay results published in patent publication US20230101735A1, “ANTI-TROP-2 ANTIDODY-EXATECAN ANALOG CONJUGATE AND MEDICAL USE THEREOF” (JIANGSU HENGRUI MEDICINE CO., LTD., priority 2020, published 2023).

What was measured:
hTROP-2 = molecular target: T1, hTROP-2 (Homo sapiens, UniProt P09758); experiment: Antibody protein level binding assay (ELISA); conditions: absorbance at 450 nm
T1 sequence (P09758 27-274): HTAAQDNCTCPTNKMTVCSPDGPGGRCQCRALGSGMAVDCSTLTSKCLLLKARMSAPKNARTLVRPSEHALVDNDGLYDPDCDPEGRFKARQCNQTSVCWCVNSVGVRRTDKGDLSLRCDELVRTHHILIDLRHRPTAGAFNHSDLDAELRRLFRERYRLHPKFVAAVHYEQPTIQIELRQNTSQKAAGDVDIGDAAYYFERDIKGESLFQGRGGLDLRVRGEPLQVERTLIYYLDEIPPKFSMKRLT
Description: (§1) hTROP-2 protein was diluted to 1 μg/mL with PBS buffer at pH 7.4 (Shanghai BasalMedia Technologies Co., LTD., B320), added into a 96-well microplate at 100 μL per well, and incubated at 4° C. overnight. After the liquid was discarded, 300 μL of 5% skim milk (BD, 232100) diluted with PBS was added into each well for blocking and incubated at 37° C. for 2 h. After the blocking was completed, the blocking solution was discarded; after the plate was washed 3 times with PBST buffer (pH 7.4, PBS containing 0.1% tween-20), 100 μL of a gradient diluted antibody solution was added into each well and incubated at 37° C. for 1 h. After the incubation was completed, the plate was washed 3 times with PBST buffer, and 100 μL of 1:8000 diluted mouse anti-human IgG (H+L) (Jackson ImmunoResearch, 209-035-088) was added into each well and incubated at 37° C. for 1 h. After the plate was washed 3 times with PBST buffer, 100 μL of TMB chromogenic substrate (KPL, 5120-0077) was added into each well and incubated at room temperature for 10-15 min, and the reaction was terminated by adding 50 μL of 1 M H2504 into each well. The plate was detected for the absorbance at 450 nm using a microplate reader, the binding curves of antibodies to antigen were fitted with software, and the EC50 value was calculated.

TROP-2 = experiment: Antibody endocytosis assay (DT3C cell killing); type: cell-based; conditions: antibody-DT3C mixture, three days, CTG
[1] = molecular target: T2, TROP-2 expressed on tumor cell lines (FaDu, HCC827, Colo205, DMS53, SK-OV-3) (human, UniProt P09758 27-323); experiment: cell-based or functional assay
T2 sequence: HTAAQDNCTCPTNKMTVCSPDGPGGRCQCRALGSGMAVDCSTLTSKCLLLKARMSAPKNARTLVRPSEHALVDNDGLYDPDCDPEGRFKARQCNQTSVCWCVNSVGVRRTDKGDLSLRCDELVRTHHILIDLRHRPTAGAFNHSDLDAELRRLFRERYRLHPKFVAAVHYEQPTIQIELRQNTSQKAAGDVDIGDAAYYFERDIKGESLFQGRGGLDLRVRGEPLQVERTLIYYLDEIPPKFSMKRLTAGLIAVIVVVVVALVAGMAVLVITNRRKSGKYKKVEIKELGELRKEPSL

[2] = molecular target: T2, TROP-2 expressed on tumor cell lines …; experiment: cell-based or functional assay; remark: listed apart in the source
[3] = molecular target: T3, human TROP-2 on stably transfected CHO-K1 cells (CHO-K1/hTROP-2) (human, UniProt P09758 27-323); experiment: flow cytometry on stably transfected TROP-2-expressing CHOK1 cells
T3 construct: Full-length TROP-2 (Genbank NP_002344.2) expressed from a lentiviral vector; also called stably transfected TROP-2-expressing CHOK1 cells; hTROP-2 protein-expressing cells
T3 sequence: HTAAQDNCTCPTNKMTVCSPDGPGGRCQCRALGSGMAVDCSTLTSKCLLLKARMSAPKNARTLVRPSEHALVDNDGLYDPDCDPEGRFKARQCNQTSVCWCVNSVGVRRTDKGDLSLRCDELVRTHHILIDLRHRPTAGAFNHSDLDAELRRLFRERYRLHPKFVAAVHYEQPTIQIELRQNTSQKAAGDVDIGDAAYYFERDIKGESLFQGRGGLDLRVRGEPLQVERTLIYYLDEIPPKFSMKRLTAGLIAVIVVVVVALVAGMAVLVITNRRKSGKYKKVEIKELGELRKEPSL
Description: (§2) After centrifugation and removal of the supernatant, the test antibodies that was diluted with FACS buffer to different concentrations were added at 50 μL/well. The plate was incubated in the dark in a 4° C. refrigerator for 1 h. The plate was washed 3 times with FACS buffer by centrifugation at 300 g, and Alexa Fluor 488 goat anti-human IgG (H+L) (invitrogen, A-11013) at working concentration was added. The plate was incubated in the dark in a 4° C. refrigerator for 40 min. The plate was washed 3 times with FACS buffer by centrifugation at 300 g and tested on a BD FACSCantoII flow cytometer for geometric mean fluorescence intensity (MFI). The binding EC₅₀ value of the antibody to the stably transfected TROP-2-expressing cells was calculated.

[4] = molecular target: T4, hTROP-2 protein (huTROP-2 protein, His27-Thr274, accession No. NP_002344.2) (human, UniProt P09758 27-274); experiment: SPR (Biacore T200), antibody captured on chip, hTROP-2 as analyte, 1:1 Langmuir fit
T4 construct: No tag is stated for this construct; also called antigen hTROP-2
T4 sequence: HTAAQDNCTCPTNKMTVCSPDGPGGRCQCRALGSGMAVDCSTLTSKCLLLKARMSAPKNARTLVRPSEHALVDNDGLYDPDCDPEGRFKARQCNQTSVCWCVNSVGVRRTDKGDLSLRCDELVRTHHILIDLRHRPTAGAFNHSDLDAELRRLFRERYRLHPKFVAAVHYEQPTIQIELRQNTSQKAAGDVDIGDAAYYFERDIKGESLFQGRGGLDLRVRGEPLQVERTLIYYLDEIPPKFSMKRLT
Description: The affinity of antibody for TROP-2 was detected in a form of a capture antibody. […] After dissociation was completed for each assay cycle, the chip was washed clean and regenerated with regeneration buffer, Glycine1.5 (Cat. #BR100354, GE) or 3 M MgCl₂ (from Human antibody capture kit, Cat. #BR100839, GE). After the assay was completed, the data were fitted with (1:1) Langmuir model using GE Biacore T200 Evaluation version 3.0 to obtain affinity values.

[5] = molecular target: T4, hTROP-2 protein (huTROP-2 protein, …); experiment: ELISA, plate coated with hTROP-2 protein at 1 ug/mL, anti-human IgG detection, OD450
Description: as §1, with “EC₅₀” for “EC50”

[6] = molecular target: T3, human TROP-2 on stably transfected …; experiment: flow cytometry (geometric mean fluorescence) on stably transfected TROP-2-expressing CHOK1 cells, Alexa Fluor 488 anti-human IgG detection
Description: as §2

hRS7: control anti-TROP-2 antibody, heavy chain SEQ ID NO: 15, light chain SEQ ID NO: 16, constructed with reference to WO03074566 [reference compound]
Emax (OD value) (hTROP-2): 1.37 OD value
Emax (TROP-2): 98.5%

B1: ADC-4 (TINA-58, n=3.99) (antibody, human IgG1, kappa, V domains shown)
VH: QVQLVQSGAEVKKPGASVKVSCKASGYTFTTAGMQWVRQAPGQGLEWMGWINTHSGVPKYAEDFKGRVTISADTSTSTAYLQLSSLKSEDTAVYYCARSGFGSSYWYFDVWGQGTLVTVSS
VL: DIQMTQSPSSLSASVGDRVTITCKASQDVSTAVAWYQQKPGKAPKLLIYSASYRYTGVPSRFSGSGSGTDFTLTISSLQPEDFAVYYCQQHYITPLTFGQGTKLEIKR
modifications: compound 58 coupled to cysteine thiols after TCEP reduction; positions not given; compound 58 (linker-drug) coupled to cysteine thiols after TCEP reduction; mean n=3.99 per antibody, positions not given
EC50 (nM), killing of Colo205 cells [1]: 59.8 nM
EC50 (nM), killing of DMS53 cells [1]: 75.6 nM
EC50 (nM), killing of FaDu cells (CTG, 6 days) [1]: 0.53 nM
EC50 (nM), killing of HCC827 cells [1]: 0.27 nM
Emax (%), killing of Colo205 cells [1]: 99.7%
Emax (%), killing of DMS53 cells [1]: 89.8%
Emax (%), killing of FaDu cells [1]: 101%
Emax (%), killing of HCC827 cells [1]: 88.2%
Emax (%), killing of SK-OV-3 cells [1]: 49.1%

B2: ADC-7 (hRS7-9-A, n=3.72) (antibody, human IgG1, kappa, V domains shown)
VH: QVQLQQSGSELKKPGASVKVSCKASGYTFTNYGMNWVKQAPGQGLKWMGWINTYTGEPTYTDDFKGRFAFSLDTSVSTAYLQISSLKADDTAVYFCARGGFGSSYWYFDVWGQGSLVTVSS
VL: DIQLTQSPSSLSASVGDRVSITCKASQDVSIAVAWYQQKPGKAPKLLIYSASYRYTGVPDRFSGSGSGTDFTLTISSLQPEDFAVYYCQQHYITPLTFGAGTKVEIKR
modifications: compound 9-A coupled to cysteine thiols after TCEP reduction; positions not given; compound 9-A coupled to cysteine thiols after TCEP reduction; mean n=3.72 per antibody, positions not given
EC50 (nM), killing of Colo205 cells [1]: 52.8 nM
EC50 (nM), killing of DMS53 cells [1]: 72.9 nM
EC50 (nM), killing of FaDu cells (CTG, 6 days) [1]: 0.31 nM
EC50 (nM), killing of HCC827 cells [1]: 0.18 nM
Emax (%), killing of Colo205 cells [1]: 99.5%
Emax (%), killing of DMS53 cells [1]: 88.7%
Emax (%), killing of FaDu cells [1]: 101%
Emax (%), killing of HCC827 cells [1]: 89.3%
Emax (%), killing of SK-OV-3 cells [1]: 66.1%

B3: ADC-5 (PD3-58, n=3.88) (antibody, human IgG1, kappa, V domains shown)
VH: EVQLVQSGSELKKPGASVKVSCKASGYTFTNYGMNWVKQAPGQGLKWMGWINTYTGEPTYTQDFKGRFAFSLDTSVSTAYLQISSLKAEDTAVYYCARGGFGSSYWYFDVWGQGTLVTVSS
VL: DIQLTQSPSSLSASVGDRVSITCKASQDVSIAVAWYQQKPGKAPKLLIYSASYRYTGVPDRFSGSGSGTDFTLTISSLQPEDFAVYYCQQHYITPLTFGAGTKVEIKR
modifications: compound 58 coupled to cysteine thiols after TCEP reduction; positions not given; compound 58 coupled to cysteine thiols after TCEP reduction; mean n=3.88 per antibody, positions not given
EC50 (nM), killing of Colo205 cells (second parallel assay) [2]: 25.6 nM
EC50 (nM), killing of DMS53 cells (second parallel assay) [2]: 25.7 nM
EC50 (nM), killing of FaDu cells (second parallel assay) [2]: 0.14 nM
EC50 (nM), killing of HCC827 cells (second parallel assay) [2]: 0.13 nM

B4: PD3 anti-TROP-2 antibody (antibody, human IgG1, kappa, V domains shown)
VH: EVQLVQSGSELKKPGASVKVSCKASGYTFTNYGMNWVKQAPGQGLKWMGWINTYTGEPTYTQDFKGRFAFSLDTSVSTAYLQISSLKAEDTAVYYCARGGFGSSYWYFDVWGQGTLVTVSS
VL: DIQLTQSPSSLSASVGDRVSITCKASQDVSIAVAWYQQKPGKAPKLLIYSASYRYTGVPDRFSGSGSGTDFTLTISSLQPEDFAVYYCQQHYITPLTFGAGTKVEIKR
notes: CDR-mutated variant designed on the hRS7 template; also called PD3 antibody
EC50 [3]: 1.57 nM
Emax (MFI) [3]: 16700 MFI
Kd [4]: 0.686 nM
EC50 [5]: 13.6 nM
Emax (OD value) [5]: 1.4 OD
EC50 (read off the curve) [6]: ~2 µg/mL

B5: hRS7 anti-TROP-2 antibody (control molecule) (antibody, human IgG1, kappa, V domains shown)
VH: QVQLQQSGSELKKPGASVKVSCKASGYTFTNYGMNWVKQAPGQGLKWMGWINTYTGEPTYTDDFKGRFAFSLDTSVSTAYLQISSLKADDTAVYFCARGGFGSSYWYFDVWGQGSLVTVSS
VL: DIQLTQSPSSLSASVGDRVSITCKASQDVSIAVAWYQQKPGKAPKLLIYSASYRYTGVPDRFSGSGSGTDFTLTISSLQPEDFAVYYCQQHYITPLTFGAGTKVEIKR
EC50 [3]: 2.31 nM
Emax (MFI) [3]: 16000 MFI
Kd [4]: 0.987 nM
EC50 [5]: 18.3 nM
Emax (OD value) [5]: 1.37 OD
EC50 (read off the curve) [6]: ~3 µg/mL

B6: TINA anti-TROP-2 antibody (control molecule) (antibody, human IgG1, kappa, V domains shown)
VH: QVQLVQSGAEVKKPGASVKVSCKASGYTFTTAGMQWVRQAPGQGLEWMGWINTHSGVPKYAEDFKGRVTISADTSTSTAYLQLSSLKSEDTAVYYCARSGFGSSYWYFDVWGQGTLVTVSS
VL: DIQMTQSPSSLSASVGDRVTITCKASQDVSTAVAWYQQKPGKAPKLLIYSASYRYTGVPSRFSGSGSGTDFTLTISSLQPEDFAVYYCQQHYITPLTFGQGTKLEIKR
EC50 [3]: 3.55 nM
Emax (MFI) [3]: 14200 MFI
Kd [4]: 21.5 nM
EC50 [5]: 16.1 nM
Emax (OD value) [5]: 1.39 OD
EC50 (read off the curve) [6]: ~4 µg/mL
